Patent US8017576B2, “Methods and compositions to treat mucositis” (The University of Chicago, priority 2005, dated 2011)

What was measured:
[1] = tested on: human colonic Caco2 (C2) cell monolayers; assay: Tight junction recovery after low-calcium disruption, ZO-1 confocal microscopy; assay type: cell-based; conditions: low-calcium medium (3 μM) 1 hour, assessed 2 hours after addition; AMP peptide 8 μg/ml, KGF-1 100 ng/ml, EGF 100 ng/ml
Protocol: The AMP77-97 peptide prevented decreases in TJ proteins and epithelial integrity seen after treatment of human colonic Caco2 (C2) cell monolayers with the oxidant monochloramine, which disrupts intercellular junctions (FIG. 2; C,D). These cells were exposed to low-calcium medium (3 μM) for 1 hr to disrupt TJs, and then allowed to recover in medium containing AMP77-97 peptide, epidermal growth factor (EGF) or keratinocyte growth factor (KGF-1) which are known epithelial cell mitogens that might facilitate recovery of disrupted TJs. […] At the molecular level, AMP77-97 peptide facilitates the formation of TJs by enhancing translocation of several proteins (protein kinase C-zeta, Par6, Cdc42, ECT2 and Par3) from the cytosol into TJ domains.
Localization of the tight junction protein ZO-1 was monitored by indirect immunofluorescence laser scanning confocal microscopy in confluent monolayers of C2 cells. […] To disrupt tight junctions, cells were switched to low-calcium medium (3 μM) for 1 hour. Then a growth factor at a known mitogenic concentration was added to the medium, and 2 hours later its effect on tight junction formation was assessed by confocal microscopy. Vehicle, AMP peptide (8 μg/ml), KGF-1 (100 ng/ml), and EGF (100 ng/ml) were compared.

[2] = tested on: stomach and intestinal epithelial cells; assay: Mitogenic and physiological effects on stomach and intestinal epithelial cells; assay type: cell-based
Excerpt: The synthesis of AMP-18 is confined to lumenal mucosal lining epithelial cells of the gastric antrum of humans and other mammals. Inside cells the protein is co-localized with mucins in secretion granules, and appears to be secreted into the mucus overlying the apical plasma membrane. […] These include mitogenesis, restitution, maturation of barrier function, and cell protection after oxidant, non-steroidal anti-inflammatory (NSAID), and DSS-mediated injury. Certain of these physiological effects can occur at concentrations that are relatively low for rhAMP-18 (<50 μM) compared to the concentrations of other gastric peptide mediators such as trefoil peptides or the α-defensin, cryptdin 3 (>100 μM). […] AMP-18 likely plays a role in physiological and pathological processes such as wound healing in the gastric mucosal epithelium in vivo as may occur in gastritis secondary to NSAID drugs, other pharmaceutical agents and alcohol, ulcer disease, and the consequences of H. pylori infection and inflammation.

B1: KGF-1: keratinocyte growth factor, known epithelial cell mitogen (protein, UniProt P21781 32-194, looked up)
Fibroblast growth factor 7: CNDMTPEQMATNVNCSSPERHTRSYDYMEGGDIRVRRLFCRTQWYLRIDKRGKVKGTQEMKNNYNIMEIRTVAVGIVAIKGVESEFYLAMNKEGKLYAKKECNEDCNFKELILENHYNTYASAKWTHNGGEMFVALNQKGIPVRGKKTKKEQKTAHFLPMAIT
formation of new tight junctions / localization of ZO-1 [1]: persistent separation of cells with TJ disruption and apparent loss of ZO-1

B2: rhAMP-18: recombinant human AMP-18 prepared in E. coli; Antrum Mucosal Protein-18 (gastrokine-1) (protein, UniProt Q9NS71 21-185, looked up)
Gastrokine-1: NYNINVNDDNNNAGSGQQSVSVNNEHNVANVDNNNGWDSWNSIWDYGNGFAATRLFQKKTCIVHKMNKEVMPSIQSLDALVKEKKLQGKGPGGPPPKGLMYSVNPNKVDDLSKFGKNIANMCRGIPTYMAEEMQEASLFFYSGTCYTTSVLWIVDISFCGDTVEN
concentration for mitogenic effect relative to growth-promoting synthetic peptides ([2]; recombinant protein prepared in E. coli): an order of magnitude lower
concentrations at which physiological effects occur ([2]; rhAMP-18): < 50 μM
